Values quoted from earlier work in patent US20170173060A1, “ACTIVATION OF THE ENDOGENOUS ILEAL BRAKE HORMONE PATHWAY FOR ORGAN REGENERATION AND RELATED COMPOSITIONS, METHODS OF TREATMENT, DIAGNOSTICS, AND REGULATORY SYSTEMS” (VOLANT HOLDINGS GMBH, priority 2014, published 2017).

How the values were obtained:
[1] = test system: MIN-6 cells; settings: immunoprecipitation and western blotting
[2] = test system: severely streptozotocin-diabetic rats; settings: rat, in vivo

B1: Betacellulin (protein, UniProt P35070 32-111, looked up)
Betacellulin: DGNSTRSPETNGLLCGDPEENCAATTTQSKRKGHFSRCPKQYKHYCIKGRCRFVVAEQTPSCVCDEGYIGARCERVDLFY
modifications: Betacellulin
notes: member of the epidermal growth factor family
Question: For B1, which “phosphorylation of EGF receptors (ErbBs)” value [1] is on record?
Answer: induced phosphorylation of only ErbB-1 and ErbB-2

B2: EGF (protein, UniProt P01133 23-1207, looked up)
Pro-epidermal growth factor: PQHWSCPEGTLAGNGNSTCVGPAPFLIFSHGNSIFRIDTEGTNYEQLVVDAGVSVIMDFHYNEKRIYWVDLERQLLQRVFLNGSRQERVCNIEKNVSGMAINWINEEVIWSNQQEGIITVTDMKGNNSHILLSALKYPANVAVDPVERFIFWSSEVAGSLYRADLDGVGVKALLETSEKITAVSLDVLDKRLFWIQYNREGSNSLICSCDYDGGSVHISKHPTQHNLFAMSLFGDRIFYSTWKMKTIWIANKHTGKDMVRINLHSSFVPLGELKVVHPLAQPKAEDDTWEPEQKLCKLRKGNCSSTVCGQDLQSHLCMCAEGYALSRDRKYCEDVNECAFWNHGCTLGCKNTPGSYYCTCPVGFVLLPDGKRCHQLVSCPRNVSECSHDCVLTSEGPLCFCPEGSVLERDGKTCSGCSSPDNGGCSQLCVPLSPVSWECDCFPGYDLQLDEKSCAASGPQPFLLFANSQDIRHMHFDGTDYGTLLSQQMGMVYALDHDPVENKIYFAHTALKWIERANMDGSQRERLIEEGVDVPEGLAVDWIGRRFYWTDRGKSLIGRSDLNGKRSKIITKENISQPRGIAVHPMAKRLFWTDTGINPRIESSSLQGLGRLVIASSDLIWPSGITIDFLTDKLYWCDAKQSVIEMANLDGSKRRRLTQNDVGHPFAVAVFEDYVWFSDWAMPSVMRVNKRTGKDRVRLQGSMLKPSSLVVVHPLAKPGADPCLYQNGGCEHICKKRLGTAWCSCREGFMKASDGKTCLALDGHQLLAGGEVDLKNQVTPLDILSKTRVSEDNITESQHMLVAEIMVSDQDDCAPVGCSMYARCISEGEDATCQCLKGFAGDGKLCSDIDECEMGVPVCPPASSKCINTEGGYVCRCSEGYQGDGIHCLDIDECQLGEHSCGENASCTNTEGGYTCMCAGRLSEPGLICPDSTPPPHLREDDHHYSVRNSDSECPLSHDGYCLHDGVCMYIEALDKYACNCVVGYIGERCQYRDLKWWELRHAGHGQQQKVIVVAVCVVVLVMLLLLSLWGAHYYRTQKLLSKNPKNPYEESSRDVRSRRPADTEDGMSSCPQPWFVVIKEHQDLKNGGQPVAGEDGQAADGSMQPTSWRQEPQLCGMGTEQGCWIPVSSDKGSCPQVMERSFHMPSYGTQTLEGGVEKPHSLLSANPLWQQRALDPPHQMELTQ
modifications: Pro-epidermal growth factor
Question: Which glucose tolerance [2] does the source give for B2 here?
Answer: neither gastrin nor EGF alone improved glucose tolerance
